Reference: patent US20210221891A1 (NANJING LEGEND BIOTECH, published 2021)

target: human PD-L1 expressed on CHO-K1 cells (human, UniProt Q9NZQ7 19-290); assay: cell-based or functional assay
Sequence (Q9NZQ7 19-290): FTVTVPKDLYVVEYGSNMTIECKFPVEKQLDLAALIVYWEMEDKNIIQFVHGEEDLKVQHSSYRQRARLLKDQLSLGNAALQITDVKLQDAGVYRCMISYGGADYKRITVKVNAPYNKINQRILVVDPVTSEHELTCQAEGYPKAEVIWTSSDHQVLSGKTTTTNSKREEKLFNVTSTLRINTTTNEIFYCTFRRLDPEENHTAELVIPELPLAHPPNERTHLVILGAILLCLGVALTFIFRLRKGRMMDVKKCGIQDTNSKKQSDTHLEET

| Binder | EC50 of PD-L1- based blockade assay for sdAbs [nM] |
| --- | --- |
| AS11947 sdAb (VHH) VHH: DVQLVESGGGLVQAGDSLRLTCSASGRTFISYAVGWFRQAPGTEREFVAGIRWNGISTDYTDSVKGRFTISRDNAKNTVYLQMNSLKPEDTAIYYCAAHRTIATIPNKYEYDHWGQGTQVTVSS | 77.2 |
| AS11948 sdAb (VHH) VHH: EVQLVESGGGLVQAGDSLRLSCVASGRTFVTYGMGWFRQAPGKEREFVAAINWSGSMTSYGDSVKGRFAISRDNAKNTVYLQMNSLKPEDTAVYYCAAALGAVVYTTREPYTYWGRGTQVTVSS | 25.2 |
| AS06686 sdAb (VHH) VHH: AVQLVESGGGLVQAGDSLRLACAASGRTFLTYALGWFRQAPGKEREFVAGVSWSGSSTKYADSVKGRFTISRDNAKNTVYMQMNSLKPEDTAVYYCAAQISAIVPISAHEYQYWGQGTQVTVSS | 352 |
| AS06778 sdAb (VHH) VHH: QVQLVESGGGLVQAGGSLKLSCAASGRTFITYAMGWFRQAPGKERELVAAISWSGSSTYSADSVKGRFTISRDNAKNTVYLQMNSLKPEDTAVYYCAAEVSARTGEHLPKLMGDYWGQGTQVTVSS | 20.1 |
| AS06750 sdAb (VHH) VHH: AVQLVESGGGLVQAGDSLRLSCTASGRTFLTYAVGWFRQAPGTEREFVAGIRWSGGYTDYADSVKGRFTISRDNAKNTVYLQMNSLKPEDTAVYYCAAHRTIATIPEKYEYEYWGQGTQVTVSS | 33.6 |
| AS06617 sdAb (VHH) VHH: DVQLVESGGGLVQAGDSLRLSCAASGRTFISYAVGWFRQAPGSEREFVAGIRWNGIHTDYADSVKGRFTISRDNAKNTVTLEMTSLKPEDTAVYYCAAHRTIATIPEKYEYEYWGQGTQVTVSS | 63.8 |
| AS06775 sdAb (VHH) VHH: QVQLVESGGGLVQAGDSLRLSCAASGRTFLTLAVGWFRQAPGTEREFVAGIRWSGSGTDYADSVKGRFTISRDNAKNTVYLQMNSLKPEDTAVYYCAAHTTIATIPEKYEYEYWGRGTQVTVSS | 75.5 |
| AS06618 sdAb (VHH) VHH: EVQLVESGGRLVRAGDSLRLSCAASGRTFLSYAVGWFRQAPGTEREFVAGIRWSGGYTDYAEAVKGRFTISRDNAKNTVYLQMNSLKPEDTAVYYCAAHRTIATIPEKYEYEYWGQGTQVTVSS | 44.5 |
| AS06682 sdAb (VHH) VHH: AVQLVESGGGLVQAGDSLRLSCTASGRTFLSYAVGWFRQAPGTEREFVAGIRWSGEHTDYAASVKGRFTISRDNAKNTVYLQMNSLKPEDTAVYYCAAHTTIATIPKKYEYEYWGQGTQVTVSS | 42 |
| AS12003 sdAb (VHH) VHH: EVQLVESGGGLVQAGDSLRLSCAASGRTFLSYAVGWFRQAPGTEREFVAGIRWSGGSTDYADSVKGRFTISRDNAKNTVYLQMNSLKPEDTAVYYCAAHRTIATVPNKYEYDTWGQGTQVTVSS | 96.2 |
| AS06628 sdAb (VHH) VHH: QVQLVESGGGLVQAGGSLRLSCAASGRTFITYAIGWFRQAPGKEREFVTAINWSGSMTSYADSVKGRFTISRDNNKNMVYLQMNSLKPEDTAVYYCAAHRGAIAPMTQSVYDYWGQGTQVTVSS | 24.2 |
| AS06703 sdAb (VHH) VHH: EVQLVESGGGLVRAGGSLRLSCAASGRTFITYAIGWFRQAPGKEREFVTAINWSGSMTSYADSVKGRFTISRDNNKNTVYLQMNSLKPEDTALYYCAAHLGAIAPMSQSVYDYWGQGTQVTVSS | 15 |
| AS06791 sdAb (VHH) VHH: QVQLVESGGGLVQAGGSLRLSCAASGRTFITYAIGWFRQAPGKEREFVTAINWSGSMTSYADSVKGRFTISRDNAKNTVYLQINGLKSEDTAVYYCAAHRGAIAPMTQSVYDYWGQGTQVTVSS | 36.5 |
| AS06730 sdAb (VHH) VHH: QVQLVESGGGLVQAGGSLRLSCAASGRTFITYAIGWFRQAPGKEREFVSAINWSGSMTSYADSVKGRFTISRDNAKNTVYLQMNGLKPEDTAVYYCAAHRGAIAPIAQSVYTNWGQGTQVTVSS | 17.2 |
